Patent publication US20060177448

Molecular target: gDHER2(DIV)-IgG, P04626

B1: purified catalytic domain of MT5-MMP (MMP-25) (protein)
chain: YALSGSVWKKRTLTWRVRSFPQSSQLSQETVRVLMSYALMAWGMESGLTFHEVDSPQGQEPDILIDFARAFHQDSYPFDGLGGTLAHAFFPGEHPISGDTHFDDEETWTFGSKDGEGTDLFAVAVHEFGHALGLGHSSAPNSIMRPFYQGPVGDPDKYRLSQDDRDGLQQLYG
- in vitro HER2 cleavage (sheddase) assay, stained gel: All MT-MMPs except MMP-14 efficiently cleave gDHER2(DIV)-IgG substrate
